Source: paper PMC9810080

Experiments:
[1] = biological target: CaM2 peptide, CNGB1 residues 1120–1147 (UniProt Q14028); experiment: ITC
[2] = biological target: CaM1 peptide, CNGB1 residues 565–589 (UniProt Q14028); experiment: ITC
CaM1 peptide, CNGB1 residues 565–589, sequence (Q14028 565-589): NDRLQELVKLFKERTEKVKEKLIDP

CaM2 peptide, CNGB1 residues 1120–1147, sequence (Q14028 1120-1147): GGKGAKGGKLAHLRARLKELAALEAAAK

- dH [1]: 2.1 kcal/mol
- dH1 (site 1 of the two-site fit) [1]: -4.5 kcal/mol
- stoichiometry N [1]: 2 CaM2 per CaM
- Kd of the endothermic site (two-site fit) [2]: 240 µM
- apparent Kd of the exothermic site (two-site fit) [2]: 1 µM
- dH1 (site 1 of the two-site fit) [2]: -7.5 kcal/mol
- stoichiometry N [2]: 2 CaM1 per CaM
Substance: Calmodulin (CaM), full-length (from UniProt P0DP23 1-149) (natural protein)
